Measured values as given in PMC2835750, “A Direct Interaction with NEDD1 Regulates γ-Tubulin Recruitment to the Centrosome” (PLoS ONE, 2010).
Residue numbers refer to the chain shown, from its start. In names and notes the source's numbering stands.

B1: NEDD1 fragment (residues 549–660) (domain or fragment, human, UniProt Q8NHV4 549-660, looked up)
chain: STPNPKIASSVTAGVASSLSEKIADSIGNNRQNAPLTSIQIRFIQNMIQETLDDFREACHRDIVNLQVEMIKQFHMQLNEMHSLLERYSVNEGLVAEIERLREENKRLRAHF
notes: NEDD1, human, residues 549-660; predicted mass 12.8 kDa; also called additional fragment of NEDD1 that included residues 549–660
B2: NEDD1 CTD L642Q, GST removed (domain or fragment, human, UniProt Q8NHV4 572-660, looked up)
chain: ADSIGNNRQNAPLTSIQIRFIQNMIQETLDDFREACHRDIVNLQVEMIKQFHMQLNEMHSLLERYSVNEGQVAEIERLREENKRLRAHF
notes: source: E. coli BL21 star (DE3), purified (glutathione resin, thrombin, SEC)
B3: NEDD1 CTD L642Q/L649Q/L656Q (3xLQ), GST removed (domain or fragment, human, UniProt Q8NHV4 572-660, looked up)
chain: B2 chain with L78Q, L85Q
notes: also called triple 3×LQ; triple 3xLQ; source: E. coli BL21 star (DE3), purified (glutathione resin, thrombin, SEC)
B4: NEDD1 CTD Y636A/S637A, GST removed (domain or fragment, human, UniProt Q8NHV4 572-660, looked up)
chain: B2 chain with Y65A, S66A, Q71L
notes: also called YS (Y636A/S637A) mutant NEDD1; source: E. coli BL21 star (DE3), purified (glutathione resin, thrombin, SEC)
B5: NEDD1 CTD (residues 572–660), GST removed (domain or fragment, human, UniProt Q8NHV4 572-660, looked up)
chain: B2 chain with Q71L
notes: calculated mass 10.5 kDa; also called NEDD1 CTD WT; purified CTD; source: E. coli BL21 star (DE3), purified (glutathione resin, thrombin, SEC)

Legend:
[1] = target: the molecule itself; assay: SEC-MALS; data not shown; single peak not affected by dilution; oligomeric state
[2] = target: the molecule itself; assay: SEC-MALS; Superdex 200 HR 10/30, 50 mM NaP, 300 mM NaCl, 1 mM DTT, pH 8.0; oligomeric state

Protein	stoichiometry N [1]	stoichiometry N [2]
B1	4	
B2		4
B3		4
B4		4
B5		4
